PMC10924461, “Structure and ligand binding in the putative anti-microbial peptide transporter protein, YejA” (Microbiology, 2024)

Tests used:
[1] = target: T1, YejA, periplasmic solute-binding protein of the YejABEF ABC transporter from E. coli (E. coli K12, UniProt P33913 20-604); experiment: thermal shift assay (SYPRO orange); 0.5 mg ml^-1 (7.3 µM) YejA, 5x SYPRO orange, 25 µl, 25-96 °C in 1 °C/30 s steps; synthetic peptides added; a shift greater than 3 °C taken as significant; conditions: both partners purified
T1 construct: YejA, E. coli K12, residues 1-585 (Gln1-Glu585) of the mature protein, without the signal peptide; numbers count on: the mature protein; also called EcYejA; recombinant YejA; source: E. coli BL21 (DE3) with pBKA101, purified (HisTrap, HRV 3C cleavage, S200 SEC); not shown: His6, C-terminal, cleaved
T1 sequence (looked up): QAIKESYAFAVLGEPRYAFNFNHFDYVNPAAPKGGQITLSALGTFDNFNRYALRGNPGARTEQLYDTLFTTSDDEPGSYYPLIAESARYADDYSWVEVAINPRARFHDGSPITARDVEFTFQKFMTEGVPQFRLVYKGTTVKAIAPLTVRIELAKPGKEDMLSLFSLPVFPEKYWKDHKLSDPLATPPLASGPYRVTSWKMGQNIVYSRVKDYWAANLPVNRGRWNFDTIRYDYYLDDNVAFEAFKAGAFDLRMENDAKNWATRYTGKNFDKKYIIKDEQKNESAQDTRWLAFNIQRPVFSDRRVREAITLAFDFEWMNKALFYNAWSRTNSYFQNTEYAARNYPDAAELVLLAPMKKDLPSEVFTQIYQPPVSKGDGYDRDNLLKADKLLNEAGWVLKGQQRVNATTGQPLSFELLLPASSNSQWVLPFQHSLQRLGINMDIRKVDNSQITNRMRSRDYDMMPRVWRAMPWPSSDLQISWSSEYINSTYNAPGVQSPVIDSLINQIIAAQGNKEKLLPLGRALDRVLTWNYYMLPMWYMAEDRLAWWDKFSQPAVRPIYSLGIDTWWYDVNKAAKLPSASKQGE

[2] = target: T1, YejA, periplasmic solute-binding …; experiment: as above; conditions: both partners purified; remark: listed apart in the source

B1: FAVLGEPRYAFN (peptide)
peptide: FAVLGEPRYAFN
notes: YejA, E. coli, stretch of the N-terminal segment; numbers count on: the mature protein; source: co-purified with recombinant YejA (self-derived); synthetic peptide
With B1 the “melting temp. change with 5 mg ml^-1 (3.61 mM) peptide” value [1] was 19 °C.

B2: LGEPRYAFNFN (peptide)
peptide: LGEPRYAFNFN
notes: YejA, E. coli, residues 12-22 of the N-terminal segment; numbers count on: the mature protein; also called undecapeptide; 11-mer; source: co-purified and co-crystallised with recombinant YejA (self-derived); synthetic peptide
In the case of B2, the “melting temp. change with 0.75 mg ml^-1 (0.56 mM) peptide” value [1] is reported as 13 °C, the “Tm of YejA with 0.005 mg ml^-1 peptide (60.8 °C without peptide)” value [2] is reported as 62.6 °C and the “Tm of YejA with 0.05 mg ml^-1 peptide (60.8 °C without peptide)” value [2] is reported as 67.5 °C.

B3: LGEPAYAFNFN (peptide)
peptide: LGEPAYAFNFN
notes: numbers count on: the peptide (Leu1 = residue 12 of mature YejA); source: synthetic peptide
B3 was tested, and the “melting temp. change with 2.5 mg ml^-1 (2.01 mM) peptide” value [1] was 7 °C.

B4: LGEPRWAFNFN (peptide)
peptide: LGEPRWAFNFN
notes: numbers count on: the peptide (Leu1 = residue 12 of mature YejA); also called Trp-containing peptide; Trp6 containing peptide; source: synthetic peptide
With B4 the “melting temp. change with 2.5 mg ml^-1 (1.85 mM) peptide” value [1] was 22 °C.

B5: LGEPRYAFN (peptide)
peptide: LGEPRYAFN
notes: YejA, E. coli, stretch of the N-terminal segment; numbers count on: the mature protein; source: synthetic peptide
B5 was tested, and the “melting temp. change with 1.25 mg ml^-1 (1.17 mM) peptide” value [1] was 17 °C.

B6: LGEPRYAFNF (peptide)
peptide: LGEPRYAFNF
notes: as for B5
In the case of B6, the “melting temp. change with 2.5 mg ml^-1 (2.06 mM) peptide” value [1] is reported as 20 °C.

B7: VLGEPRYAFNFN (peptide)
peptide: VLGEPRYAFNFN
notes: YejA, E. coli, stretch of the N-terminal segment; numbers count on: the mature protein; also called dodecapeptide; 12-mer; source: co-purified with recombinant YejA (self-derived); synthetic peptide
With B7 the “melting temp. change with 2.5 mg ml^-1 (1.75 mM) peptide” value [1] was 21 °C.

B8: EPRYAFNFN (peptide)
peptide: EPRYAFNFN
notes: as for B5
For B8, the “melting temp. change with 2.5 mg ml^-1 (2.16 mM) peptide” value [1] was 8 °C.

B9: GEPRYAFNFN (peptide)
peptide: GEPRYAFNFN
notes: as for B5
B9 was tested, and the “melting temp. change with 2.5 mg ml^-1 (2.06 mM) peptide” value [1] was 14 °C.

B10: VLGEPRYAFNFNHFD (peptide)
peptide: VLGEPRYAFNFNHFD
notes: YejA, E. coli, stretch of the N-terminal segment; numbers count on: the mature protein; also called 15-mer; source: co-purified with recombinant YejA (self-derived); synthetic peptide
In the case of B10, the “melting temp. change with 2.5 mg ml^-1 (1.37 mM) peptide” value [1] is reported as 26 °C.

B11: VLGEPRYAFNF (peptide)
peptide: VLGEPRYAFNF
notes: as for B1
B11 was tested, and the “melting temp. change with 2.5 mg ml^-1 (1.9 mM) peptide” value [1] was 22 °C.
